Source: the Human Domainome abundance scans (Beltran et al. 2025)

B1: Transcriptional regulator ERG, residues 117 to 197; numbered along this chain, P11308 (parent)
chain: NMTTNERRVIVPADPTLWSTDHVRQWLEWAVKEYGLPDVNILLFQNIDGKELCKMTKDDFQRLTPSYNADILLSHLHYLRE

Variants of: B1
Test: abundance fitness (aPCA) (normalised: wild type 0, dead -1); higher = more abundant; growth selection in yeast, the domain comes from the species named
Settings: Homo sapiens

Abundance fitness of substitutions, site by site:
V31: G -0.164, M -0.003, N -0.218, I 0.02, D -0.498, K 0.06, C -0.111, Q -0.086, H -0.14, T 0.001, S -0.015, R -0.054, E -0.154, W -0.439, P -0.649
N46: S 0.012, T -0.035, H -0.063, K -0.104, R -0.106, I -0.379, L -0.251, C -0.066, M -0.255, Y -0.082, Q -0.144, V -0.617, E 0.039, F -0.133, P -0.244, W -0.201, D 0.023
D38: V -0.755, S -0.054, Q -0.067, M -0.317, N -0.011, A -0.217, L -0.756, W -0.398, R -0.146, F -0.541, T -0.052, P 0.046, C -0.289, E -0.094, H -0.049, K -0.091, G -0.004, Y -0.293
A30: N -0.217, P -0.956, Y -0.655, S -0.103, L -0.103, Q -0.018, E -0.051, W -0.324, T -0.051, D -0.884, C -0.117, V -0.095, H -0.108, F -0.403, I -0.164, K -0.105, G -0.181
W26: V -0.778, Y 0.011
I47: A -0.521, C -0.163
L43: I -0.217, W -0.079, G -0.019, M -0.063, V -0.083, Q 0.047, C 0.08, T 0.07, F -0.105, N -0.033, K 0.071, P -0.128, Y -0.082, R -0.029, S 0.041, D -0.006, H 0.027
I41: A -0.145, Y -0.057, E -0.053, V -0.021, D -0.157, F 0, Q -0.112, P -0.024, L -0.027, W -0.159, R -0.187, K 0.012, C -0.034, H -0.075, G -0.097, T -0.034, S -0.128, M -0.061, N -0.136
L27: F -0.493, R -0.912, D -0.648, E -0.965, S -1, Y -0.584, N -1.02, W -0.891, K -0.623, M -0.153, T -0.628, P -0.593, C -0.47, I -0.085, Q -0.658
P37: T 0.072, V -0.024, S 0.08, A 0.022, F -0.143, I 0.106, D -0.027, R 0.014, K 0.054, C 0.017, N 0.072, W -0.123, E 0.018, Q -0.044, L 0.001, Y -0.018, M 0.001, H 0.016, G -0.026
Q45: D -0.096, P -0.407, W -0.292, F -0.274, R -0.055, V -0.154, I -0.235, M -0.083, K 0.042, C -0.234, S -0.005, Y -0.113, H 0.07, T -0.132, L -0.241, E 0.045, G -0.042
L42: D -0.068, K -0.008, A 0.014, S 0.012, E -0.001, T -0.042, F -0.154, V -0.027, R 0.056, N 0.078, C -0.051, G 0.033, Y -0.018, W -0.024, I -0.112
E28: W -0.16, A -0.022, F -0.24, R -0.095, P -0.534, V -0.04, K -0.041, D -0.146, I -0.108, Y -0.093, L -0.09, C -0.037, T -0.031, S -0.099, N 0.012, H 0.005, Q -0.062
L36: R -0.81, M -0.038, V -0.225, N -0.75, F -0.038, I -0.066, D -0.426, C 0.014, E -0.889, Q -0.67, G -0.563, T -0.357, P -1.08, S -0.829, Y -0.375, W -0.253, A -0.476
V39: A -0.169, C 0.005, P -0.295, F 0.04, N -0.144, S -0.116, I 0.007, Q -0.219, M -0.045, K -0.242, Y -0.252, D -0.241, W -0.334, T -0.002, L 0.066, R -0.278
N40: C -0.172, M -0.413, T -0.213, H -0.292, L -0.179, P -0.153, A -0.201, R -0.255, D 0.072, F -0.419, Y -0.284, Q -0.165, I -0.317, G -0.4, S -0.236
W29: H 0.082, I -0.07, L -0.168, Y 0.006, T 0.065, R -0.006, S 0.11, E 0.127, V -0.143, C 0.017, G 0.111, K 0.048, A 0.101, M -0.038, D 0.21, P -1.08, F -0.098
G35: D 0.063, C -0.057, Q 0.05, K 0.044, P -0.302, V -0.05, H 0.088, A 0.03, S 0.012, F -0.276, M -0.047, R -0.027, I -0.021, W -0.273, E 0.009, T 0.061, L -0.069
F44: Q -0.181, I -0.497, T -0.297, G -0.382, R -0.278, V -0.523, D -0.067, C -0.215, N -0.067, S -0.275, Y -0.081, L -0.217, H -0.407, P -0.435, W -0.072, A -0.195
E33: G -0.429, M -0.105, N -0.059, C -0.307, W -0.169, K 0.029, Y -0.151, H -0.108, P -0.929, D 0.002, S -0.035, I -0.193, F -0.034, T -0.15
Y34: K -0.056, E -0.2, V -0.341, H -0.06, T -0.449, F -0.021, D -0.326, W -0.105, Q -0.28, P -0.523, S -0.278, C -0.186, G -0.254, I -0.171, R -0.211
K32: I 0.005, Q -0.109, F -0.166, P -0.468, M 0.003, Y -0.198, S -0.111, N 0.05, A -0.103, T -0.044, D -0.028, G -0.103, H -0.037, W -0.158, E 0.053, V -0.036, R -0.052
